# Data reported in publication PMC2756588.
# T1: Abp1, P15891
# T1 sequence (P15891 535-592, looked up): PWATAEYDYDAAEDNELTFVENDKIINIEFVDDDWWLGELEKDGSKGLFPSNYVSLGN
# T2: Bbc1, P47068
# T2 sequence (P47068 1-78, looked up): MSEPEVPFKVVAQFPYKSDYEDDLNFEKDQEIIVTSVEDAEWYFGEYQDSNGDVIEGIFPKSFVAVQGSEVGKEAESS
# T3: Boi1, P38041
# T3 sequence (P38041 1-86, looked up): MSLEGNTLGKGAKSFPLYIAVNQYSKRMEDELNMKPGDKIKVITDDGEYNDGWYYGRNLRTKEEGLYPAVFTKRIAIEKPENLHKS
# T4: Boi2, P39969
# T4 sequence (P39969 32-116, looked up): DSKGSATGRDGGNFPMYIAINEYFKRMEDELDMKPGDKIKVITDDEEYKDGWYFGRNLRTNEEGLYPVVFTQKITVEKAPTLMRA
# T5: Bud14, P27637
# T5 sequence (P27637 247-328, looked up): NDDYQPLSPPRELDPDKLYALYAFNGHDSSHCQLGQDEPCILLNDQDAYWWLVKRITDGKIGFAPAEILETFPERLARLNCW
# T6: Bzz1-1, P38822
# T6 sequence (P38822 478-572, looked up): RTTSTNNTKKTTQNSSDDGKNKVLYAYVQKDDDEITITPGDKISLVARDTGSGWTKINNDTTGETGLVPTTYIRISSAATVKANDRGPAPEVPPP
# T7: Bzz1-2, P38822
# T7 sequence (P38822 568-633, looked up): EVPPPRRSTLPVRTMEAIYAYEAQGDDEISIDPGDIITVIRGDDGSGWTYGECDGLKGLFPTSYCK
# T8: Cdc25, P04821
# T8 sequence (P04821 50-136, looked up): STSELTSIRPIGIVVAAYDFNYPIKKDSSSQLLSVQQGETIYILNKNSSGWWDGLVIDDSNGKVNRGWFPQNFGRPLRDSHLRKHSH
# T9: Cyk3, Q07533
# T9 sequence (Q07533 1-83, looked up): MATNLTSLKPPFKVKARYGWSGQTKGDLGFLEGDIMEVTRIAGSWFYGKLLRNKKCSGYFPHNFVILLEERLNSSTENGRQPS
# T10: Fus1, P11710
# T10 sequence (P11710 432-512, looked up): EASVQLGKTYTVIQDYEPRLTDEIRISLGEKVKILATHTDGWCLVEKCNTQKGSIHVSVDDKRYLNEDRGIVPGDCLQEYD
# T11: Hof1, Q05080
# T11 sequence (Q05080 590-669, looked up): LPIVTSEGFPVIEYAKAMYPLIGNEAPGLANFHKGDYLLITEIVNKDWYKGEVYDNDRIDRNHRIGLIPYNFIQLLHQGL
# T12: Hse1, P38753
# T12 sequence (P38753 208-285, looked up): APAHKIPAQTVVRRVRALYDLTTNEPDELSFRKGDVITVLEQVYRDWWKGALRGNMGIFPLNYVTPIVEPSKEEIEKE
# T13: Lsb1, P53281
# T13 sequence (P53281 45-122, looked up): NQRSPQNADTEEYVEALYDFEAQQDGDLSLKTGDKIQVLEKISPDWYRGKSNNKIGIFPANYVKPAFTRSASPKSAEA
# T14: Lsb3, P43603
# T14 sequence (P43603 385-451, looked up): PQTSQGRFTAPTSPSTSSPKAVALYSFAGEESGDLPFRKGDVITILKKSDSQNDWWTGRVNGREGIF
# T15: Lsb4, P32793
# T15 sequence (P32793 402-468, looked up): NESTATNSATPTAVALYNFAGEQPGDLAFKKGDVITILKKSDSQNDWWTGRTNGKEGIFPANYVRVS
# T16: Myo5, Q04439
# T16 sequence (Q04439 1072-1160, looked up): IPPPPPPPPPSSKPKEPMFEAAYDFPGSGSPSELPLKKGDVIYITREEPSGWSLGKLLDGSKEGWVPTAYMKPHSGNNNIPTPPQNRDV
# T17: Nbp2, Q12163
# T17 sequence (Q12163 103-180, looked up): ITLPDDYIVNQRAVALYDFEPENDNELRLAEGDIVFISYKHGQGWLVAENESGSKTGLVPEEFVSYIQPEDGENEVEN
# T18: Pex13, P80667
# T18 sequence (P80667 295-386, looked up): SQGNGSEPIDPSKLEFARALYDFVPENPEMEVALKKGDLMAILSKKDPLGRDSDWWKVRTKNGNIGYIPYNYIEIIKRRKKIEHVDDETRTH
# T19: Pin3, Q06449
# T19 sequence (Q06449 53-122, looked up): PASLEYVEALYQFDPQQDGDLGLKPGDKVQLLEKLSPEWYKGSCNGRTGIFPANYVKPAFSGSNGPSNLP
# T20: Sla1-2, P32790
# T20 sequence (P32790 60-140, looked up): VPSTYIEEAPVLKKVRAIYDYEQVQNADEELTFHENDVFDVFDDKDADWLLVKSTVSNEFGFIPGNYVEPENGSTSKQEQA
# T21: Sla1-3, P32790
# T21 sequence (P32790 344-424, looked up): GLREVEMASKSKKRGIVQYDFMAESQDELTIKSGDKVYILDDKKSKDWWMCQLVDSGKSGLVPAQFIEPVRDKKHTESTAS
# Columns and labels:
# Experiment in all cases: SPOT array
# Abp1, P15891 = biological target: T1, Abp1, P15891; conditions: median of control spots 935
# Bbc1, P47068 = biological target: T2, Bbc1, P47068; conditions: median of control spots 796
# Bem1-1, P29366 = conditions: median of control spots 4282
# Bem1-2, P29366 = conditions: median of control spots 4347
# Boi1, P38041 = biological target: T3, Boi1, P38041; conditions: median of control spots 1162
# Boi2, P39969 = biological target: T4, Boi2, P39969; conditions: median of control spots 1161
# Bud14, P27637 = biological target: T5, Bud14, P27637; conditions: median of control spots 956
# Bzz1-1, P38822 = biological target: T6, Bzz1-1, P38822; conditions: median of control spots 4446
# Bzz1-2, P38822 = biological target: T7, Bzz1-2, P38822; conditions: median of control spots 4538
# Cdc25, P04821 = biological target: T8, Cdc25, P04821; conditions: median of control spots 969
# Cyk3, Q07533 = biological target: T9, Cyk3, Q07533; conditions: median of control spots 1451
# Fus1, P11710 = biological target: T10, Fus1, P11710; conditions: median of control spots 1200
# GST = conditions: median of control spots 978
# Hof1, Q05080 = biological target: T11, Hof1, Q05080; conditions: median of control spots 4086
# Hse1, P38753 = biological target: T12, Hse1, P38753; conditions: median of control spots 1727
# Lsb1, P53281 = biological target: T13, Lsb1, P53281; conditions: median of control spots 388
# Lsb3, P43603 = biological target: T14, Lsb3, P43603; conditions: median of control spots 406
# Lsb4, P32793 = biological target: T15, Lsb4, P32793; conditions: median of control spots 397
# Myo3, P36006 = conditions: median of control spots 468
# Myo5, Q04439 = biological target: T16, Myo5, Q04439; conditions: median of control spots 471
# Nbp2, Q12163 = biological target: T17, Nbp2, Q12163; conditions: median of control spots 357
# Pex13, P80667 = biological target: T18, Pex13, P80667; conditions: median of control spots 1341
# Pin3, Q06449 = biological target: T19, Pin3, Q06449; conditions: median of control spots 2171
# Rvs167, P39743 = conditions: median of control spots 2707
# Sho1, P40073 = conditions: median of control spots 1148
# Sla1-2, P32790 = biological target: T20, Sla1-2, P32790; conditions: median of control spots 712
# Sla1-3, P32790 = biological target: T21, Sla1-3, P32790; conditions: median of control spots 5475
# Sequence of Bem1-1, P29366 (P29366 55-141): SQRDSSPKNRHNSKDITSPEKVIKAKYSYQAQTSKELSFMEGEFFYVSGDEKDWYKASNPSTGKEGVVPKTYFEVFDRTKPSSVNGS
# Sequence of Rvs167, P39743 (P39743 419-482): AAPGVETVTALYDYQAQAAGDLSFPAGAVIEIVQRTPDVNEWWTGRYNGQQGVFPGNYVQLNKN
# Sequence of Bem1-2, P29366 (P29366 139-227): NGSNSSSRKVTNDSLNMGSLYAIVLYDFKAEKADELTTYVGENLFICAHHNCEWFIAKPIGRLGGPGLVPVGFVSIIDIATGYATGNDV
# Sequence of Sho1, P40073 (P40073 287-367): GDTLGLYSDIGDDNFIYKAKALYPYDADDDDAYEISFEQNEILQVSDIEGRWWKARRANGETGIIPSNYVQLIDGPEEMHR
binder,measurement,setting,value
RVRKTHVPASKRPSG,SPOT intensity,"Abp1, P15891",64
same,SPOT intensity,"Bbc1, P47068",11
same,SPOT intensity,"Bem1-1, P29366",0
same,SPOT intensity,"Bem1-2, P29366",0
same,SPOT intensity,"Boi1, P38041",1
same,SPOT intensity,"Boi2, P39969",1
same,SPOT intensity,"Bud14, P27637",5
same,SPOT intensity,"Bzz1-1, P38822",0
same,SPOT intensity,"Bzz1-2, P38822",0
same,SPOT intensity,"Cdc25, P04821",0
same,SPOT intensity,"Cyk3, Q07533",3
same,SPOT intensity,"Fus1, P11710",5
same,SPOT intensity,GST,2
same,SPOT intensity,"Hof1, Q05080",0
same,SPOT intensity,"Hse1, P38753",2
same,SPOT intensity,"Lsb1, P53281",0
same,SPOT intensity,"Lsb3, P43603",0
same,SPOT intensity,"Lsb4, P32793",1
same,SPOT intensity,"Myo3, P36006",1
same,SPOT intensity,"Myo5, Q04439",0
same,SPOT intensity,"Nbp2, Q12163",0
same,SPOT intensity,"Pex13, P80667",0
same,SPOT intensity,"Pin3, Q06449",1
same,SPOT intensity,"Rvs167, P39743",0
same,SPOT intensity,"Sho1, P40073",124
same,SPOT intensity,"Sla1-2, P32790",1
same,SPOT intensity,"Sla1-3, P32790",6
LSKRLPLRFPEHTSS,SPOT intensity,"Abp1, P15891",22
same,SPOT intensity,"Bbc1, P47068",2
same,SPOT intensity,"Bem1-1, P29366",0
same,SPOT intensity,"Bem1-2, P29366",4
same,SPOT intensity,"Boi1, P38041",0
same,SPOT intensity,"Boi2, P39969",0
same,SPOT intensity,"Bud14, P27637",1
same,SPOT intensity,"Bzz1-1, P38822",0
same,SPOT intensity,"Bzz1-2, P38822",7
same,SPOT intensity,"Cdc25, P04821",3
same,SPOT intensity,"Cyk3, Q07533",0
same,SPOT intensity,"Fus1, P11710",1
same,SPOT intensity,GST,0
same,SPOT intensity,"Hof1, Q05080",25
same,SPOT intensity,"Hse1, P38753",101
same,SPOT intensity,"Lsb1, P53281",1
same,SPOT intensity,"Lsb3, P43603",0
same,SPOT intensity,"Lsb4, P32793",4
same,SPOT intensity,"Myo3, P36006",0
same,SPOT intensity,"Myo5, Q04439",0
same,SPOT intensity,"Nbp2, Q12163",2
same,SPOT intensity,"Pex13, P80667",3
same,SPOT intensity,"Pin3, Q06449",0
same,SPOT intensity,"Rvs167, P39743",0
same,SPOT intensity,"Sho1, P40073",29
same,SPOT intensity,"Sla1-2, P32790",0
same,SPOT intensity,"Sla1-3, P32790",24
PSRRDSLSIPRAVDA,SPOT intensity,"Abp1, P15891",8
same,SPOT intensity,"Bbc1, P47068",0
same,SPOT intensity,"Bem1-1, P29366",0
same,SPOT intensity,"Bem1-2, P29366",0
same,SPOT intensity,"Boi1, P38041",0
same,SPOT intensity,"Boi2, P39969",1
same,SPOT intensity,"Bud14, P27637",0
same,SPOT intensity,"Bzz1-1, P38822",0
same,SPOT intensity,"Bzz1-2, P38822",0
same,SPOT intensity,"Cdc25, P04821",0
same,SPOT intensity,"Cyk3, Q07533",1
same,SPOT intensity,"Fus1, P11710",0
same,SPOT intensity,GST,2
same,SPOT intensity,"Hof1, Q05080",0
same,SPOT intensity,"Hse1, P38753",0
same,SPOT intensity,"Lsb1, P53281",1
same,SPOT intensity,"Lsb3, P43603",1
same,SPOT intensity,"Lsb4, P32793",0
same,SPOT intensity,"Myo3, P36006",3
same,SPOT intensity,"Myo5, Q04439",2
same,SPOT intensity,"Nbp2, Q12163",0
same,SPOT intensity,"Pex13, P80667",1
same,SPOT intensity,"Pin3, Q06449",11
same,SPOT intensity,"Rvs167, P39743",0
same,SPOT intensity,"Sho1, P40073",13
same,SPOT intensity,"Sla1-2, P32790",0
same,SPOT intensity,"Sla1-3, P32790",0
